Reference: the supplement of paper PMC10567573

B1: FUT8 (parent)
chain: YAHQPRTADEIPMEPGDIIGVAGN

Variants of: B1
Assay: protein stability index of a GFP-peptide fusion (GPS, HEK-293T) (PSI 1-6); higher = more stable
Conditions: c terminus: a fixed tail appended
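Also: lentivirally expressed fusions sorted by FACS into six bins by GFP to DsRed ratio, PSI derived from sequencing read proportions per bin multiplied by bin number.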

Protein stability index, by site and new letter:
R6: W 2.62; E 5.23; V 4.44; L 4.2; I 4.12; G 4.65; Y 3.73; N 4.33; C 4.05; T 4.59; A 4.48; D 4.54; P 4.78; M 3.84; H 4.25; S 4.46; F 3.46; K 3.99; Q 4.47
D9: P 3.33; L 3.1; K 3.51; I 2.6; T 3.57; H 3.67; Q 3.74; C 3.22; E 4.09; A 3.53; N 3.65; Y 2.62; G 3.52; M 3.74; S 3.67; V 2.52; W 2.16; R 3.41; F 2.68
I11: V 4.55; A 4.44; D 4.65; T 4.2; R 4.07; C 4.26; P 4.12; G 3.98; E 4.37; H 4.06; S 4.09; Q 4.46; F 3.71; Y 3.93; L 3.47; K 4.27; N 4.26; M 4.09; W 3.44
E10: G 2.53; P 3.66; H 3.33; Q 3.08; T 3.66; S 3.74; R 2.96; Y 3.06; M 3.44; K 2.9; W 2.23; V 3.37; A 3.67; N 3.73; D 4.18; I 2.99; F 3.14; L 3.56; C 3.25
P12: K 3.96; Q 4.47; G 3.6; C 3.48; V 3.72; I 3.27; T 4.09; A 4.23; D 4.2; N 3.73; E 4.2; W 2.4; R 3.28; H 3.41; S 4.08; L 3.57; M 3.58; Y 3.21; F 3.27
A8: T 4.24; P 4.32; V 3.77; Q 4.25; H 3.87; E 4.4; F 3.48; M 3.74; S 3.87; K 3.88; W 2.78; R 3.89; D 4.49; C 3.44; Y 3.15; L 3.43; N 4.22; G 4.19; I 4.02
M13: C 3.9; V 4.68; R 4.43; I 3.87; N 4.46; A 4.69; K 3.95; F 3.43; L 4.1; Q 4.71; E 4.73; P 4.18; W 3.08; D 4.82; T 4.34; S 4.07; Y 4.12; G 4.52; H 4.33
P5: S 3.85; Q 4.12; T 4.31; W 1.88; L 3.75; Y 3.48; M 3.53; V 3.92; N 4.33; R 3.55
T7: V 3.89; I 3.66; Y 3.58; W 2.46; M 3.68; S 4.12; F 2.37; D 4.62; Q 4.25; K 3.56; L 3.71; E 4.84; A 4.18; R 3.9; N 4.51; H 3.66; G 4.18; C 2.73; P 3.97
E14: D 3.75; C 3.32; F 2.46; A 3.41; G 3.35
